The record followed here is paper PMC6938701 (Science Advances, 2020).

Usually stoichiometry N stands for a count of units in the complex or per binding partner.

The data set concerns the molecule itself. Put plainly: non-reducing SDS-PAGE with Western blot. In general terms: A western blot detects proteins with antibodies after separation by electrophoresis.

B1: Recombinant human Prx2 (peroxiredoxin 2) (enzyme, UniProt P32119 2-198, looked up)
chain: ASGNARIGKPAPDFKATAVVDGAFKEVKLSDYKGKYVVLFFYPLDFTFVCPTEIIAFSNRAEDFRKLGCEVLGVSVDSQFTHLAWINTPRKEGGLGPLNIPLLADVTRRLSEDYGVLKTDEGIAYRGLFIIDGKGVLRQITVNDLPVGRSVDEALRLVQAFQYTDEHGEVCPAGWKPGSDTIKPNVDDSKEYFSKHN
As for B1, the “stoichiometry N” value worked out at 2.
